Test [1] addresses tubby-N (N-terminus of mouse tubby, 1M-242P), GST-free (mouse) (UniProt P50586). The test can be described thus: clonal phage on immobilized tubby-N, plaque assay.
Test [2] deals with FLAG-tubby-F (full-length mouse tubby with N-terminal FLAG tag) (mouse) (UniProt P50586). The test can be described thus: clonal phage on immobilized FLAG-tubby-F, plaque assay.
Chain of FLAG-tubby-F (full-length mouse tubby with N-terminal FLAG tag) (mouse) (P50586 other isoform, or with tags, fused parts or gaps): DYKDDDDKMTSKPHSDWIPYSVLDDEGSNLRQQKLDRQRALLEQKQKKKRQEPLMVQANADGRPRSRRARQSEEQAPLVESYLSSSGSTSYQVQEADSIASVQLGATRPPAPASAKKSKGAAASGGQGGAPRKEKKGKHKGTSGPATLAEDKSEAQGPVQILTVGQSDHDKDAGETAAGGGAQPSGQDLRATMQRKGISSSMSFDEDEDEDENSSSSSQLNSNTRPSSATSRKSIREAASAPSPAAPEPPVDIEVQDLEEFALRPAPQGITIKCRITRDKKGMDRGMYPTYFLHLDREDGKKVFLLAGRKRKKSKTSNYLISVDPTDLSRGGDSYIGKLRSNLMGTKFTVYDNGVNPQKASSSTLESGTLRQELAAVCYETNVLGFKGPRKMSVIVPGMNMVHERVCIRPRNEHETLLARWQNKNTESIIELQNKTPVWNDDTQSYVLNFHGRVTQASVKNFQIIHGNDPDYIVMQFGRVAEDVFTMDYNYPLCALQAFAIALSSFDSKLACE

Chain of tubby-N (N-terminus of mouse tubby, 1M-242P), GST-free (mouse) (P50586 1-242): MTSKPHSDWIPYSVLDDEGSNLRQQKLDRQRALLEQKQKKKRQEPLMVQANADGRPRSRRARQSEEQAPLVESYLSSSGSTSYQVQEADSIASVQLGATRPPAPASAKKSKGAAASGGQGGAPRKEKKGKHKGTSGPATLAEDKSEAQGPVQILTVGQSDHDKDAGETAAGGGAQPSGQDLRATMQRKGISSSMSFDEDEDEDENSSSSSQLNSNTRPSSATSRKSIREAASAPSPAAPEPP

B1: Regulated endocrine-specific protein 18 (Resp18) 68V-134K, phage clone (protein, mouse, UniProt P47939 68-134, looked up)
chain: VPEGMFWADDIAYELMTKKVEHLSRLHPQYPCRKDMKAVSPTANAGVRSKQEEKLQLLSPQKSPTVK
For B1, in test [1], the Binding to tubby-N (binding specificity of clonal phage vs. control phage) was 10.3 X (fold). Also, the Binding to tubby-F (binding specificity to FLAG-tubby-F vs. to GFP-FLAG) in test [2] was 4.8 X (fold).

These data come from patent US20110207628A1.
